In the supplement of paper PMC10567573:

B1: TRIM39 (parent)
chain: ERDFPCPVCRKTSRYRSLRPNRQL
B2: FBF1 (parent)
chain: QLQCSPAELQAELLHSQARLAELE

Variants of: B1
Experiment: protein stability index of a GFP-peptide fusion (GPS, HEK-293T) (PSI 1-6); higher = more stable
Settings: c terminus: a fixed tail appended
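Further: lentivirally expressed fusions sorted by FACS into six bins by GFP to DsRed ratio, PSI derived from sequencing read proportions per bin multiplied by bin number.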

Protein stability index of substitutions, site by site:
R22: G 2.17 | H 1.56 | I 1.93 | K 2.66 | L 1.83 | M 2.86 | N 1.6 | Q 1.95 | S 1.5 | T 2.04 | V 1.76 | Y 2.23
Q23: A 1.33 | C 1.8 | D 2.34 | F 1.67 | G 2.46 | H 3.18 | I 1.68 | K 1.92 | L 1.87 | M 2.27 | N 2.77 | P 1.47 | R 1.71 | S 2.17 | T 2.9 | W 2.26 | Y 1.66
L24: A 1.81 | C 3.12 | D 1.75 | F 2.04 | G 2.06 | H 2.82 | I 1.85 | N 2.41 | P 3.2 | Q 3.08 | R 3.37 | S 3.32 | T 2.51 | V 2.19 | W 1.36

Variants of: B2
Experiment: as above
Settings: c terminus: a fixed tail appended

Protein stability index: each site, then its substitutions
Q1: A 2.89 | C 2.91 | D 3.2 | E 3.2 | F 2.06 | G 2.77 | H 3.26 | I 2.82 | K 2.69 | L 2.62 | M 2.64 | N 2.82 | P 3.91 | R 2.59 | S 3.31 | T 3.33 | V 2.41 | W 2.8 | Y 2.6
L2: A 3.02 | C 2.42 | D 3.65 | E 4.46 | F 2.83 | G 3.38 | H 3.21 | I 2.82 | K 2.89 | M 3.61 | N 3.52 | P 4.15 | Q 3.85 | R 2.59 | S 3.96 | T 2.94 | V 3.68 | W 2.75 | Y 3.35
Q3: A 3.13 | C 2.53 | D 3.1 | E 3.54 | F 2.11 | G 3.25 | H 2.6 | I 2.69 | K 2.19 | L 3.35 | M 2.59 | N 2.81 | P 3.01 | R 3.21 | S 3.53 | T 3.48 | V 3.1 | W 2.62 | Y 2.12
C4: A 3.99 | D 4.22 | E 4.39 | F 3.14 | G 3.32 | H 3.15 | I 2.93 | K 4.23 | L 3.92 | M 3.82 | N 3.26 | P 3.65 | Q 3.92 | R 3.94 | S 3.82 | T 3.49 | V 2.96 | W 2.82 | Y 3.77
S5: A 3.48 | C 3.03 | D 2.74 | E 3.25 | F 2.87 | G 2.79 | H 3.01 | I 3.25 | K 3.23 | L 3.13 | M 3.23 | N 2.94 | P 3.67 | Q 3.69 | R 2.66 | T 3.85 | V 3.03 | W 2.64 | Y 3.01
P6: A 2.85 | C 2.17 | D 3.56 | E 2.6 | F 2.28 | G 2.24 | H 2.19 | I 2.44 | K 4 | L 2.43 | M 2.31 | N 3.47 | Q 2.84 | R 3.1 | S 3.26 | T 3.66 | V 2.44 | W 2.51 | Y 2.14
A7: C 2.74 | D 3.66 | E 3.4 | F 2.57 | G 2.52 | H 2.57 | I 2.94 | K 2.9 | L 2.37 | M 2.36 | N 3.39 | P 3.79 | Q 3.27 | R 3.06 | S 3.62 | T 2.78 | V 3.07 | W 2.92 | Y 1.82
E8: A 1.66 | C 1.72 | D 2.55 | F 2.13 | G 2.76 | H 2.48 | I 2.28 | K 2.79 | L 2.27 | M 2.06 | N 2.84 | P 3.86 | Q 2.67 | R 2.33 | S 2.17 | T 2.41 | V 2.18 | W 1.79 | Y 2.25
L9: A 4.79 | C 3.85 | D 5.05 | E 5.3 | F 4.1 | G 4.96 | H 4.18 | I 4.14 | K 4.57 | M 4.3 | N 4.92 | P 4.79 | Q 4.62 | R 4.51 | S 5.05 | T 4.45 | V 4.4 | W 4.52 | Y 4.64
Q10: A 2.93 | C 2.45 | D 5.13 | E 3.95 | F 1.79 | G 3.85 | H 3.1 | I 2.04 | K 3.74 | L 2.17 | M 2.29 | N 3.54 | P 4.69 | R 2.56 | S 3.7 | T 3.91 | V 2.56 | W 2.21 | Y 1.89
A11: C 3.89 | D 2.94 | E 4.26 | F 2.41 | G 4.24 | H 3.38 | I 2.24 | K 3.04 | L 1.71 | M 2.01 | N 3.1 | P 4.43 | Q 3.28 | R 2.62 | S 2.77 | T 3.37 | V 2.87 | W 2.59 | Y 2.3
E12: A 2.47 | C 3.05 | D 3.33 | F 3.56 | G 3.65 | H 2.41 | I 2.57 | K 3.38 | L 2.75 | M 3.49 | N 3.18 | P 4.04 | Q 2.67 | R 3.59 | S 2.94 | T 3.62 | V 3.17 | W 1.64 | Y 3.22
L13: A 4.28 | C 4.32 | D 5.39 | E 4.25 | F 4.25 | G 4.59 | H 4.85 | I 4.62 | K 4.25 | M 3.34 | N 4.96 | P 4.73 | Q 5.08 | R 4.31 | S 4.74 | T 4.7 | V 4.2 | W 4.13 | Y 4.52
L14: A 2.89 | C 3.3 | D 4.88 | E 4.39 | F 3.27 | G 4.5 | H 3.94 | I 3.83 | K 3.72 | M 2.93 | N 2.85 | P 4.8 | Q 3.59 | R 3.33 | S 3.67 | T 3.61 | V 4.08 | W 2.93 | Y 3.21
H15: A 3.78 | C 2.88 | D 3.28 | E 3.81 | F 1.84 | G 4.04 | I 1.87 | K 3.49 | L 2.27 | M 2.22 | N 2.81 | P 4.91 | Q 3.71 | R 2.73 | S 2.52 | T 3.56 | V 2.85 | W 2.65 | Y 1.92
S16: A 2.88 | C 4.23 | D 5.03 | E 4.81 | F 3.78
